These results are taken from patent US20250197448A1 (UNIVERSITY OF ROCHESTER, published 2025).

Starred links: 1 amine or outer side, 2 acyl side, 3 side chain; linkers in the order of their positions; H or OH if unused. Positions of bridges follow the written chain, without caps; N, C: chain ends. Non-standard residues stand in square brackets, D forms with d. No end group written: not given here. O2beY = O-(2-bromoethyl)-tyrosine (p-2beF), reacts with Cys to form a thioether, O=C([C@H](Cc1ccc(OCCBr)cc1)N[*:1])[*:2]; pCaaF = p-(2-chloroacetamido)-phenylalanine, O=C(CCl)Nc1ccc(C[C@H](N[*:1])C(=O)[*:2])cc1

In experiment [1] the target is T1, Sonic Hedgehog (Shh) (human, UniProt Q15465 24-197, limits assumed). As to the kind of experiment: plate binding assay with immobilised Shh. As to the method: After washing (3×150 μL of PBS with 0.05% Tween-20), each well was incubated with 100 μL of purified FLAG-tagged cyclopeptibody at varying concentrations for 1 hour at room temperature. After washing three times with wash buffer, each well was incubated with 100 μL of 1:2500 dilution of HRP-conjugate mouse anti-FLAG polyclonal antibody (Sigma-Aldrich) for 1 hour at room temperature. After washing three times with wash buffer, 100 μL of 2.2 mM o-phenylenediamine dihydrochloride, 4.2 mM urea hydrogen peroxide, 100 mM dibasic sodium phosphate, and 50 mM sodium citrate, pH 5.0, were added to each well, followed by measurement of the absorbance at 450 nm after 10-20 min using a Tecan Infinite 1000 plate reader. Equilibrium dissociation constants (Kp) were determined by fitting the dose-response curves to a 1:1 binding isotherm equation via nonlinear regression. using SigmaPlot. Mean values and standard deviations were calculated from experiments performed in triplicate.
To prepare a Hedgehog-targeting cyclopeptibody, a Shh-binding cyclic peptide previously developed via affinity maturation of a HHIP loop 2 mimic (Owens A E et al., 2017, J. Am. Chem. Soc., 139:12559-12568) was genetically fused to the Fc domain of human IgG1 via a spacer (Entry 5, Table 1). The resulting cyclopeptibody (called L2-m5-Tras-Fc) was expressed, purified, and characterized as described in Example 4. […]

Experiment [2] addresses T1, Sonic Hedgehog (Shh). As to the kind of experiment: plate binding assay: immobilised Shh, FLAG-tagged binder titrated, HRP anti-FLAG detection.
The target in experiment [3] is T2, integrin αvβ3 on the surface of MDA-MB-231 breast cancer cells (human, UniProt P06756 31-1048; P05106 27-788).
T2 construct: whole, on cells; also called integrin receptors on the cells
T2 sequence (P06756 31-1048, chain 1 of 2): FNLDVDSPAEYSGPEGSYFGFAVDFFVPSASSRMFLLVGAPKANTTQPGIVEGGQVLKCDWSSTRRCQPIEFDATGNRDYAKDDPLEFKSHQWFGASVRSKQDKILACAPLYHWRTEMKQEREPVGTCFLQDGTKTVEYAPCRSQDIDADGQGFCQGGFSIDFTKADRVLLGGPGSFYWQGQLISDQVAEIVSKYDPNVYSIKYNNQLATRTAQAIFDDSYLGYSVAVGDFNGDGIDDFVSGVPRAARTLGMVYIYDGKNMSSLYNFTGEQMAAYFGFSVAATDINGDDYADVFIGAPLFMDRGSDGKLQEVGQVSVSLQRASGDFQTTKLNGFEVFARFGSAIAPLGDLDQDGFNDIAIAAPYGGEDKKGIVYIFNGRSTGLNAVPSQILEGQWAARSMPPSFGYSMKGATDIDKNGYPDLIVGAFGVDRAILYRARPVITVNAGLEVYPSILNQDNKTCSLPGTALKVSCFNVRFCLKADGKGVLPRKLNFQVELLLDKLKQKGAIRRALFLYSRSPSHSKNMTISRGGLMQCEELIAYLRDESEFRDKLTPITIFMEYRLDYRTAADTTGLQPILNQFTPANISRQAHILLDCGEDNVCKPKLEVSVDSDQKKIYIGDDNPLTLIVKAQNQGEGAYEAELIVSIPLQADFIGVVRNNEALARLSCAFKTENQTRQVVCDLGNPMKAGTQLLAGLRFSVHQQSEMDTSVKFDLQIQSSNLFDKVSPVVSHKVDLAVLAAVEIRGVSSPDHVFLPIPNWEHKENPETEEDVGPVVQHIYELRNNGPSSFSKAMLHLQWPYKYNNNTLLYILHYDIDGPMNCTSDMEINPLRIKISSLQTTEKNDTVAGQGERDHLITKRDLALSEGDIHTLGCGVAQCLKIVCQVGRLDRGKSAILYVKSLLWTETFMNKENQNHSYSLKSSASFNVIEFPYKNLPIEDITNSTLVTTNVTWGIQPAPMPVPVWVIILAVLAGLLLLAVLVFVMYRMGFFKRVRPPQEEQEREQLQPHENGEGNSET
T2 sequence (P05106 27-788, chain 2 of 2): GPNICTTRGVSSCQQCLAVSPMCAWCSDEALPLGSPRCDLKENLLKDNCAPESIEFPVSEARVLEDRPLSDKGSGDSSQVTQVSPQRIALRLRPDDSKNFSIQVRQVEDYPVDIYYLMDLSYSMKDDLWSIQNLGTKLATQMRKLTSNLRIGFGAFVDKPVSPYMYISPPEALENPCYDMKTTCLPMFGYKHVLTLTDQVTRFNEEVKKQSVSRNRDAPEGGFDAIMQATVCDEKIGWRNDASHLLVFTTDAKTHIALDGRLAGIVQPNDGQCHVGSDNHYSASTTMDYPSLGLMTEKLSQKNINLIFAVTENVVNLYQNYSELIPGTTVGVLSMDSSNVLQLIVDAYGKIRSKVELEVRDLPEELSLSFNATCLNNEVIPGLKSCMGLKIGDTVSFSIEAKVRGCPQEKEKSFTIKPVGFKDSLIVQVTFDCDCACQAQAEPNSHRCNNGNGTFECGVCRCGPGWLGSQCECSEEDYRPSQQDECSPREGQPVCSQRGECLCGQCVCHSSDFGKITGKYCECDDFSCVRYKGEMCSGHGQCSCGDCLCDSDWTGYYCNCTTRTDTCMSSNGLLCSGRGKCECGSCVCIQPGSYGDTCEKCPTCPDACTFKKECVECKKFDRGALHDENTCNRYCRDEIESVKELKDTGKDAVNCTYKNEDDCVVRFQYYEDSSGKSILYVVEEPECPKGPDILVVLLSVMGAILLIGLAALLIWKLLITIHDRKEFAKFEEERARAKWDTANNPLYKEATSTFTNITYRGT
As to the kind of experiment: flow cytometry on MDA-MB-231 cells, FITC anti-IgG1 Fc secondary. As to the method:
Flow Cytometry Analysis. […] When confluent, media was aspirated, cells were washed once with 1×DPBS (no calcium, no magnesium) (Gibco). Adherent cells were detached from the petri dish with 1 mL of accutase (Gibco) pre-warmed to 37° C., followed by incubated for 5 min at 37° C. Cells were spun down using centrifugation. Supernatant was removed and cells were washed three times with staining buffer (1×PBS with 0.5% BSA). Cells were resuspended in Eppendorf tubes in 100 μL PBS at a concentration of […]. Cyclopeptibodies or Human anti-PD-L1 antibody (1 μg) (R&D Systems, MAB10355) in staining buffer were then added to the tubes with a concentration of 1.5 μM in 200 μL. Eppendorf tubes were then placed on the platform shaker for gently shaking for 1 hour at room temperature. After 1 hour, cells were spun down using centrifugation, then supernatant was removed. After washing three times, cells were resuspended in 200 μL of Fluorescein (FITC) AffiniPure Goat Anti-Human IgG with working concentration of 30 μg/mL (Jackson ImmunoResearch, 109-095-098), incubated in the dark for 30 min at room temperature. […] Then cells were analyzed on a BD FACS Accuri C6⁺ using a filter of 533/30. […]
The cyclopeptibody treated cells were then analyzed by flow cytometry using a procedure similar to that described for the PD-L1-targeting cyclopeptibodies in Example 9.
In general terms: A flow cytometer gives signals particle by particle.

B1: L2-m5-Tras-Fc (Fc fusion)
chain: DYKDDDDKGSGSTLSW[O2beY]EAMDMCTSSQQQQQQ-{Fc-H6}
modifications: thioether 17-23; also: dimeric through the Fc
notes: Cyclic peptide fused through a (Gln)6 spacer to human IgG1 Fc; dimeric through the Fc; made in E. coli; also called FLAG-(GS)2-TLSWZEAMDMCTSS-(Q)6-(Fc)^1-H6
What is called Kd is the concentration at which binding is half-saturated. In the case of B1, the “fold improved affinity against the same cyclic peptide fused to CBD” value with Sonic Hedgehog (Shh) [1] was more than 55 fold. Further, in the experiment with Sonic Hedgehog (Shh) [2], the affinity, expressed as Kd, was 7 nM.

B2: RGD5R (pCaaF)-Tras-Fc (Fc fusion)
chain: DYKDDDDKGSGSCRDRGDY[pCaaF]QQQQQQIEGR-{Fc-H6}
modifications: thioether 13-20; also: dimeric through the Fc
notes: Integrin-targeting cyclopeptibody; dimeric through the human IgG1 Fc; also called cRGD5R (pCaaF)-Tras-Fc
On to B2, for which the binding result in experiment [3] was “binds”.
